The data set is described as follows: yeast display, Sf9 membrane polyspecificity reagent, FACS + sequencing; frameworks hold sequencing errors. The procedure, abridged: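 Galactose induction of a Saccharomyces cerevisiae BJ5465 synthetic nanobody display library ran 36–48 hours. The cells were then stained for 1 hour at 4 °C with 10% biotinylated, detergent-solubilized Sf9 membrane reagent, pulled down on streptavidin microbeads and FACS-sorted into low and high (top ~1%) gates on expression and reagent-binding fluorescence. Labels for polyreactivity follow the gate of origin.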
For the sequence “QVHLVDSGGGLVQAGGSLRLSCAASGSISYDNAMGWYRQAPGKERELVAAITFSGDSTNYADSVKGRFTISRDNAKNTVYLQMNSLKPEDTAVYYCAASQVSDTTRFGYWGQGTQVTVSS”, the “polyreactivity (PSR sort gate)” value is listed as “low polyreactivity”.

In the case of “QVHLVDSGGGLVQAGGSLRLSCAASGSTFYYYVMGWYRQAPGKERELVAAISSGGHPNYADSVKGRFTISRDNAKNTVYLEMNSLKPEDTAVYYCAAKARRGTLLRYGYWGQGTQVTVSS”, the “polyreactivity (PSR sort gate)” value was “high polyreactivity”.

As for “QVHLVDSGGGLVQAGGSLRLSCAASGYTFIAYTMGWYRQAPGKERELVAAITTGGRTYYADSVKGRFTISRDNAKNTVYLQMNSLKPEDTAVYYCAAYYSARYKYGGVDYWGQGTQVTVSS”, the “polyreactivity (PSR sort gate)” value is recorded as “high polyreactivity”.

“QVHLVDSGGGLVQARGSLRLSCAASGFTIGPYAMGWYRQAPGKERELVAAITIRGGSTYADSVKGRFTISRDNAKNTVYLQMNSLKPEDTAVYYCATVRALEYNYWGQGTQVTVSS”: the “polyreactivity (PSR sort gate)” value was “low polyreactivity”.

Turning to “QVHLVEAGGGLVQAGGSRRLSCAASGGIFTDYTMGWYRQAPGKETELVAAITWTGGSTYYADSVKGRFTISRDNAKNTVYLQMNSLKPEDTAVYDCAADDYWVNLDYWGQGTQVTVSS”, the “polyreactivity (PSR sort gate)” value was “low polyreactivity”.

Consider “QVHLVESAGGLVQAGGSLSLSCAASAITLYFNAMGWYRQAPGKEREWVAAISWSGDSTYYADSVKGRFTISRDNAKNTVYLQMNSLKPEDTAVYYCAADRYTYYHYAWYEYWGQGTQVTVSS”, for which the “polyreactivity (PSR sort gate)” value is given as “low polyreactivity”.

In the case of “QVHLVESGAGLDQAGVRLRLSCAPSGTTFDYNTMGWYRQAPGKERELVASINNSGGSTYYADSVKGRFTISRDNAKNTVYLQMISLKPVDTAVYYCAAVSYRRHFGPYNYWGQGTQVTVSS”, the “polyreactivity (PSR sort gate)” value is “low polyreactivity”.

“QVHLVESGAGLVQAGGSLRLSCPASGSIFFLYPMGWYRQAPGKESELVAAITWRVGSTYYADSVKGRFTISRDNAKNTVYLQMNSLKPEDTAVYYCAAYFLGFQVRYDYWGQGTQVTVSS”: the “polyreactivity (PSR sort gate)” value is “high polyreactivity”.

As for “QVHLVESGGALVQAGGSLPLSFSASGSIFTYYAMGWYRQQPGKERELVAAINSGGRTNYADSVKGRFTISRDNAKNTVYLQMNSLKPEDTAVYYCAKYGVLQYGYWGQGTQVTVSS”, the “polyreactivity (PSR sort gate)” value is “low polyreactivity”.

Regarding “QVHLVESGGALVQAGGSLRLSCAASGFIFNHYAMGWYRQAPGKEQEFVAAISWSGGSTYYADSVKGRFTISRDNAKITVYLQMNSLKPEDTAVYYCAAAVWYRGWYRYDYWGQGTQVTVSS”, the “polyreactivity (PSR sort gate)” value is “low polyreactivity”.

Consider “QVHLVESGGCLVQAGGSLRLSCAASGYIIGINAMACYRQAPRKESELVPAISRSGGSTYYAESVKGRFTISRDNAKNTVYLQMNSLKPEDTAVYYCASDILRFYSDTYGTEYWGQGTQVTVSS”, for which the “polyreactivity (PSR sort gate)” value was “high polyreactivity”.

“QVHLVESGGCLVQAGGSLRLSCSASRSIFPNNDMGWYRQQPGKERELVPAITTRGTSTYYAESVKGRFTISRDYAKNTVYLQMKSLKPEDTAVYFCAVGRRGYSAGGVAYYYWGQGTQVTVSS”: the “polyreactivity (PSR sort gate)” value is listed as “low polyreactivity”.

Consider “QVHLVESGGGFVQAGGSLRLICAASGITFGIYVMGWSRQAPGKERELVATISRSDDNSYYADSVKGRFTISRDNAKNTVYLQMNSLKPEDTAVYYCAADGVISAWYSSRDDYWGQGTQVTVSS”, for which the “polyreactivity (PSR sort gate)” value is on record as “low polyreactivity”.

In the case of “QVHLVESGGGFVQAGGSLRVSCAASRRIYNLNAMGWYRQAPGKERELVAAISKSGTRTYYADSVKGRFTISRDNAKNTVYLPMNSLKPEDTAVYSCAARRSSVTQSTTYPAVRQRYGYWGQGTQVTVSS”, the “polyreactivity (PSR sort gate)” value is reported as “high polyreactivity”.

As for “QVHLVESGGGIDQAGGSLRLSCAASGSIFRNYAMAWKRQAPGKERELVAFITRGGSTYYADSVKVRFTISRDNAKNTVYFQMNSLKPEHTAVYYCAADFWPAGLDLGYWGQGTQVTLSS”, the “polyreactivity (PSR sort gate)” value is recorded as “low polyreactivity”.

With “QVHLVESGGGIVQAGGSLRLSCAASGRTFGVNAMGWYRQAPGQEMELVAAISYSGASTFYADSLKGRFTISRDKAKNNVYLQMNSLKPEDTAVYYCAKRVVRYGKRMGYWGQGTQVTVSS”, the “polyreactivity (PSR sort gate)” value is listed as “high polyreactivity”.

“QVHLVESGGGLDQAGGSLRLSCAASGIIFFKNAMGWYRPAPGKERELVAAISSTDTRTYYADSVKGRFTISRDNAKNTVYLQKNSLKPEDTAVYYCAADYIYYYEQYLWYTYDYWGQGTQVTLSS”: the “polyreactivity (PSR sort gate)” value is given as “high polyreactivity”.

As for “QVHLVESGGGLLQAGGSLRLSCAASGSTFSINGMGWYRQAPGKERELVAAITWRGTRTYYADSVKGRFTISRDNAKNTVYLEMNSLKPEVTAVYYCAATGSGEASFYYWGQGTQVTVSS”, the “polyreactivity (PSR sort gate)” value is “high polyreactivity”.

In the case of “QVHLVESGGGLVHAGGSLRLSCAASGSIFPYYAMGWYRQAPGKETELVAAISRSGGSTYYADSVKGRFTISRDYAKNTVYLQMNSLKPDDTAVYYCAADYARYVRKTRYGSWGKGTQVTVSS”, the “polyreactivity (PSR sort gate)” value is “high polyreactivity”.

On to “QVHLVESGGGLVKAGGSLRISCAASGRTFVCYAMGCYRPAPGKERELVAAISSGGSTNYADSVKGRFTISRDNAKNTVYLLMICLKPEDTAVYYCNRRSYQRGWHWARGRYGFWGQGTQVTVSS”, for which the “polyreactivity (PSR sort gate)” value is “high polyreactivity”.

Turning to “QVHLVESGGGLVKAGGSLRLSCAASGITFGSYAMGWYRQAPGKERELVAAIDTSGDDTYYADSVKGRFTISRDNAKNTVYLQMNSLKPEDTAVYYCAADFPSAEVDYWGQGTQVTVSS”, the “polyreactivity (PSR sort gate)” value is reported as “low polyreactivity”.

With “QVHLVESGGGLVKAGGSLRLSCAASGLIFTQYSMGWYRQAPGTERELVAGITSSGGSTNYADSVKGRFTISRDNAKNTVYLQMNSLKPEDTAVYYCATRLGVLYDYWGQGTQVTVSS”, the “polyreactivity (PSR sort gate)” value is listed as “low polyreactivity”.

Turning to “QVHLVESGGGLVKAGGSLRLSCAASGSTFYANAMGWYRQAPGKEREFVASITWSGGSTYYADSVKGRFTISRDNAKNTVYLQMNSLKPEDTSVYYCAANIGHNGFDYWGQGTQVNVSS”, the “polyreactivity (PSR sort gate)” value is “low polyreactivity”.

Take “QVHLVESGGGLVKAGGSLRLSCAASGSTKNYVMGWYRQAPGKERELVAAISRGSSTYYADSVKGRFTISRDNAKNTVYLQMNSLKPEDTAVYYCAARGPWQAPYDYWGQGTQVTVSS”: the “polyreactivity (PSR sort gate)” value is recorded as “high polyreactivity”.

As for “QVHLVESGGGLVKAGGSLRLSCAASGSTKYYVMGWYRQAPGKERELVAAISRGSSTYYADSVKGRFTISRDNAKNTVYLQMNSLKPEDTAVYYCAARGPWQAPYDYWGQGTQVTVSS”, the “polyreactivity (PSR sort gate)” value is recorded as “high polyreactivity”.

For “QVHLVESGGGLVKAGGSLRLSCAASGSTSTLYAMGWYRQAPGKERELVAAISKSGGRTYYADSVKGRFTNSRDNAKNTVYLQMNSLKPEDTAVYYCNTVPGRYRTFDYWGQGTQVTVSS”, the “polyreactivity (PSR sort gate)” value was “high polyreactivity”.

For the sequence “QVHLVESGGGLVLAPASLRLSSPASGHNQGIYAMGWYRQAPGKEREFVAAISRGGGSTYYADSVKGRFTISRDNAKNTVYLQMNSLNPEDTAVYYCNAVRDRYGVFPYYYWGQGTQVTVSS”, the “polyreactivity (PSR sort gate)” value is “high polyreactivity”.

Consider “QVHLVESGGGLVPAGGSLRLSCPASGSIFYEYAMGWYRQPPGKERELVAAITVTSGSTYYADSVKGRFTISRDNAKNTVYLQMNSLKPEDTAVYYCASRIYHTYRFYYWGQGTQVTVSS”, for which the “polyreactivity (PSR sort gate)” value is recorded as “low polyreactivity”.

Regarding “QVHLVESGGGLVQAGASHRLSCAASGSISKSYAMGWYRQAPGKERELVAAISWRGGSTYADSVKGRFTISRDNAKNTVYLQMNSLKPEDTAVYYCAATNYGTFWVGQSERYDYWGQGTQVNVSS”, the “polyreactivity (PSR sort gate)” value is reported as “low polyreactivity”.

For “QVHLVESGGGLVQAGCSLRLRSAASGRIFSRNAMGRYRQAPGKERELVAAISTGGTTNYADSVKGRFTISRDNANNTVYLQMNSLKPEDTALYYCNAGLLRRRMDYWGQGTQVTVSS”, the “polyreactivity (PSR sort gate)” value is “high polyreactivity”.

As for “QVHLVESGGGLVQAGCSLRLSCAASGSTIYRYAMGWYRQAPGKERELVASINGGDDTYYADSVKGRFTISRDNAKNNVYLQMTSLKPEDTAVYYCAAEVYGSWPFDTYYYWGQGTQVTVSS”, the “polyreactivity (PSR sort gate)” value was “high polyreactivity”.

Consider “QVHLVESGGGLVQAGGILRLSCAAFGFTFKSYAMVWYIQAPGKERELVAGITSSGGGTYYADSVKGRFTISRDNAKNTVYLQMNSLKPEDTAVYYCNTYSYLFSRYGYWGQGTQVTVSS”, for which the “polyreactivity (PSR sort gate)” value is reported as “high polyreactivity”.

As to “QVHLVESGGGLVQAGGILRLSCAASGFIFVRNAMGWYRQERGKEREFVAAINSSGGRTYYADSVKGRFTISRDNAKNTVYLQMNSLKPEDTAVYYCAARSQPKKFYYWGQGTQVTVSS”, the “polyreactivity (PSR sort gate)” value is “high polyreactivity”.

Turning to “QVHLVESGGGLVQAGGILRLSCAASGFTFTSNAMGWYRQAPGKEREFVADISNIGGDTTYADSVKGRFTISRDNAKNTVYLQMNSLKPEDTAVYYCNADFAFIENDYWGQGTQVTVSS”, the “polyreactivity (PSR sort gate)” value was “low polyreactivity”.

Take “QVHLVESGGGLVQAGGILRLSCPASGSTFVYYAMVWYRQAPGKERELVAAISRSGGNTYYAYSVKGRFTISRDNAKNTVYLQMNSLKQEDTAVYYCAARSYGVQYYYWGQGTQVTVSS”: the “polyreactivity (PSR sort gate)” value was “high polyreactivity”.

As to “QVHLVESGGGLVQAGGRLRLSCAASGFTLRYYAMGWYRQAPGKESELVATINRSGASTYYADTVKGRFTISRDNAKNTVYLQMNSQKPEDTAVYYCKTATSRAYRYDYWGQGTQVTVSS”, the “polyreactivity (PSR sort gate)” value is listed as “low polyreactivity”.

For “QVHLVESGGGLVQAGGRLRLSCAASGGTFYYNAMGRYRHATGKERELVAGITQSGGNTYYADSVKGRFTISRDNAKNTVYLHMNSLKPEDTVVYYCAARIRGTWKYGYWGQGTQVTVSS”, the “polyreactivity (PSR sort gate)” value is reported as “low polyreactivity”.

In the case of “QVHLVESGGGLVQAGGSHRLRCAASGRIFSGYAKGRYRQAPGKERELVAAITQSGGSTSYADSVKGRFTISRDNAKNTVYLQMIRLKPEDTAVYYCNVDDSTWIGAYRRYDYWGQGTQVTVSS”, the “polyreactivity (PSR sort gate)” value is listed as “low polyreactivity”.

For “QVHLVESGGGLVQAGGSIRLSCAASGRTFAYNVKGWYIQAPGKVREVVAGISFGAGSTYYADSVKGRFTISRDNAKNTVYLQMNSLKPEDTAVYYCATGRRGTRYPRGYDYWGQGTQVTVSS”, the “polyreactivity (PSR sort gate)” value was “high polyreactivity”.

Consider “QVHLVESGGGLVQAGGSLRISCAASGIIFYTYARGWYRQAPGKERELVAAISRSGGSTYYADSVKGRFTISRDNAKYTVYLQMNSRKPEDTAVDYCAADSTYRSTIQDYYWGQGTQVSVSS”, for which the “polyreactivity (PSR sort gate)” value is “high polyreactivity”.

With “QVHLVESGGGLVQAGGSLRISCAASGSTFHGYAMGWYRQEPGKEMELVAAITSGDSTNYADSVKGRFTISRDNAKNTVYLQMNSLKPEDTAVYFCNAEGDSLLTGYWGYPPYWDTYDNWGQGTQVTVSS”, the “polyreactivity (PSR sort gate)” value was “low polyreactivity”.

Values taken from the nanobody polyreactivity screen of Harvey et al. (2022).
